Reference: patent publication US20200277373A1, “ANTI-TREM2 ANTIBODIES AND METHODS OF USE THEREOF” (Denali Therapeutics Inc., priority 2017, published 2020)

B1: 21D11: anti-TREM2 antibody clone; VH SEQ ID NO:14, VL SEQ ID NO:25 (antibody, V domains shown)
VH: QVQLQQSGAELARPGASVKLSCKASGYTFTSYWIQWVKQRPGQGLEWIGTIYPGDGDARYTQKFKGKATLTADKSSSTTYMQLNSLASEDSAVYYCARNGITTAGYYAMDYWGQGTSVTVSS
VL: DIQMTQSPASLSVSVGETVTITCRASENIYSNLAWYQQKQGRSPQLLVYAATNLADGVPSRFSGSGSGTQYSLKINSLQSEDFGYYYCQHFWGTPYTFGGGTKVEIK
B2: RS9.F6: anti-TREM2 antibody clone; VH SEQ ID NO:24, VL SEQ ID NO:35 (antibody, V domains shown)
VH: QVQLQQPGAELVKPGASVKLSCKASGYTFTSYWMHWVKQSPGRGLEWIGRSDPTTGGTNYNEKFKTKATLTVDKPSSTAYMQLSSLTSDDSAVYYCVRTSGTGDYWGQGTSLTVSS
VL: DVVMTQTPLSLPVSLGDQASISCRSSQSLVHNNGNTFLHWYLQKPGQSPKLLIYKVSNRFSGVPDRFSGSGSGTDFTLKISRVEAEDLGVYFCSQTTHVPPTFGGGTKLEIK

What was measured:
TREM2 [1] = target: T1, TREM2 (Homo sapiens, UniProt Q9NZC2); experiment: TREM2 pSyk antagonist assay on human macrophages (antibody pre-incubation, then liposomes); format: cell-based; settings: FIGS. 9C-9D, 30 nM antibody
T1 construct: macrophage cells that endogenously express TREM2; endogenous in cells; host or cells: primary human monocyte-derived macrophages from donor blood
T1 sequence (Q9NZC2 19-230): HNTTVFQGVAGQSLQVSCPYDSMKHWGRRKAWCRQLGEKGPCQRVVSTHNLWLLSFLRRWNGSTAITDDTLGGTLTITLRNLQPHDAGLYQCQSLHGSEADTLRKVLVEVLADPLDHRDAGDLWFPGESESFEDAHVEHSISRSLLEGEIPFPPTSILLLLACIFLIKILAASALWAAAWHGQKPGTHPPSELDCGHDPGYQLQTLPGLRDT
Method: Human macrophages were differentiated from donor blood using a human monocyte enrichment cocktail (Stem Cell Technologies) and culturing monocytes with human mCSF for five days in macrophage media (RPMI+10% Hyclone FBS+Glutamax+Pen/Strep+non-essential amino acids+sodium pyruvate). On the fifth day, the human macrophages were scraped from the flasks and were re-plated at 100,000 cells/well on a 96-well poly-D-lysine-coated plate in the macrophage media (without mCSF). The cells were incubated for 24 hours to adhere, then the media was removed.
Antibodies diluted in RPMI alone were immediately added to the cells, and allowed to incubate for 30 minutes at 37° C. The antibodies were then removed. Lipid vesicles comprised of 70% DOPC and 30% POPS (made according to the procedure for making vesicles described above) in HBSS were added to the cells and incubated […] at 37° C. The liposome/antibody solution was removed, and 35 μL lysis buffer (Cell Signaling Technologies, CST) was added using the liquid handler. The lysate was then incubated at 4° C. for 30 minutes, then either frozen at −80° C. or immediately carried forward to a pSyk AlphaLISA assay as described above.

TREM2 [2] = target: T2, TREM2 (Homo sapiens, UniProt Q9NZC2); experiment: pSyk antagonist assay on HEK293 TREM2/DAP12 cells; format: cell-based; settings: FIGS. 9E-9G
T2 construct: expressed in transfected cells
Method: These experiments were performed as follows. Two days in advance of the experiment, HEK293 cells stably overexpressing TREM2 and DAP12 were plated at 40,000 cells/well on a 96 well poly-D-lysine-coated plate. Antibodies diluted in DMEM alone were immediately added to the cells, and allowed to incubate for 30 minutes at 37° C. The antibodies were then removed. […] The liposome/antibody solution was removed, and 35 μL lysis buffer (Cell Signaling Technologies, CST) was added using the liquid handler. The lysate was then incubated at 4° C. for 30 minutes, then either frozen at −80° C. or immediately carried forward to a pSyk AlphaLISA assay as described above. The percent inhibition was calculated as in FIG. 9C.
FIGS. 9F and 9G show inhibition by 21D4 and 21D11, respectively, at increasing antibody concentrations. These experiments were performed similarly to those described in FIG. 9E.
T2 sequence (O43914 22-113 partner, one chain of several): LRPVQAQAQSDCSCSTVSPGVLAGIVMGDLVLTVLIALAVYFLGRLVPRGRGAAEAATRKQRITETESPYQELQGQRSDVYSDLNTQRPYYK

[3] = target: T3, Human TREM2 expressing HEK cells (Homo sapiens, UniProt Q9NZC2); experiment: FACS surface binding on HEK 293 overexpressing human TREM2 (H6); settings: FIG. 1A, mixed cell lines
T3 construct: expressed in transfected cells
T3 sequence (O43914 22-113 partner, one chain of several): as above
Method: HEK 293 overexpressing human TREM2 (H6) and HEK 293 overexpressing GFP (B5) were harvested by 0.05% trypsin and incubated at 37° C. for 2 hours for surface TREM2 recovery. 293F overexpression mouse TREM2 were harvested and labelled with NucBlue live cell stain ReadyProbes reagent for 10 minutes (2 drops of reagent added per mL of media). After labeling, cells were washed twice with 1×PBS. NucBlue labeled 293F cells were mixed with H6 and B5 in FACS buffer (PBS-+-0.5% BSA) with human Trustain FcX solution (Biolegend, cat #422302) at a density of 10^6/mL per cell line. Mixed cell lines were seeded at 300,000 cells per well in a 96-well round-bottom and incubated 20 minutes at room temperature. After incubation, cells were centrifuged and test anti-TREM2 antibodies were added, then incubated for 45 minutes on ice. After incubation, cells were centrifuged and washed with FACS buffer three times. Cells were then incubated with secondary antibody (Alexa Fluor 647 AffiniPure F(ab′)2 fragment goat anti-mouse IgG, Fcγ fragment specific (1:200, Jackson ImmunoResearch, cat #115-606-071) for 30 minutes on ice. After incubation, cells were washed with FACS buffer three times and resuspended in 90 μL of FACS buffer, then analyzed by flow cytometry (BD FACSCanto II, San Jose, Calif.). 20,000 events were obtained for each sample.

human macrophages = experiment: Cell survival assay, human monocyte-derived macrophages, restricted or no M-CSF, CellTiter Glo; format: cell-based; settings: plate coated antibody, 5 ng/mL or no M-CSF, day 6
Method: TREM2 can support microglia energy homeostasis (Ulland et al., Cell, 2017, 170:649-663). […] To understand if enhancing TREM2 activity with TREM2 agonistic antibodies is sufficient for macrophage/microglia survival under limited M-CSF conditions, human macrophage differentiation and survival studies were performed using antibodies as described herein. Human monocytes isolated from peripheral blood were incubated with 5 ng/mL M-CSF in the presence of titrated concentrations of plate coated TREM2 antibodies or isotype controls. On day 6 cell viability was determined by CellTiter Glo viability assay.

Molecule	liposome mediated pSyk signaling after antibody pre-incubation (TREM2 [1])	inhibition of liposome mediated pSyk (TREM2 [2])	binding to human and mouse TREM2 HEK cells (in words) [3]	survival of human macrophages (human macrophages)
B1	blocked	weaker antagonistic activity	–	–
B2	–	–	binding to both mouse and human TREM2 cells	increased the survival
